Experimental data as given in IntAct's records for PubMed 31515488.

B1: ATP-binding cassette sub-family F member 3 (Homo sapiens), Q9NUQ8 (parent)
chain: MATCAEILRSEFPEIDGQVFDYVTGVLHSGSADFESVDDLVEAVGELLQEVSGDSKDDAGIRAVCQRMYNTLRLAEPQSQGNSQVLLDAPIQLSKITENYDCGTKLPGLLKREQSSTVNAKKLEKAEARLKAKQEKRSEKDTLKTSNPLVLEEASASQAGSRKESRLESSGKNKSYDVRIENFDVSFGDRVLLAGADVNLAWGRRYGLVGRNGLGKTTLLKMLATRSLRVPAHISLLHVEQEVAGDDTPALQSVLESDSVREDLLRRERELTAQIAAGRAEGSEAAELAEIYAKLEEIEADKAPARASVILAGLGFTPKMQQQPTREFSGGWRMRLALARALFARPDLLLLDEPTNMLDVRAILWLENYLQTWPSTILVVSHDRNFLNAIATDIIHLHSQRLDGYRGDFETFIKSKQERLLNQQREYEAQQQYRQHIQVFIDRFRYNANRASQVQSKLKMLEKLPELKPVDKESEVVMKFPDGFEKFSPPILQLDEVDFYYDPKHVIFSRLSVSADLESRICVVGENGAGKSTMLKLLLGDLAPVRGIRHAHRNLKIGYFSQHHVEQLDLNVSAVELLARKFPGRPEEEYRHQLGRYGISGELAMRPLASLSGGQKSRVAFAQMTMPCPNFYILDEPTNHLDMETIEALGRALNNFRGGVILVSHDERFIRLVCRELWVCEGGGVTRVEGGFDQYRALLQEQFRREGFL
partner: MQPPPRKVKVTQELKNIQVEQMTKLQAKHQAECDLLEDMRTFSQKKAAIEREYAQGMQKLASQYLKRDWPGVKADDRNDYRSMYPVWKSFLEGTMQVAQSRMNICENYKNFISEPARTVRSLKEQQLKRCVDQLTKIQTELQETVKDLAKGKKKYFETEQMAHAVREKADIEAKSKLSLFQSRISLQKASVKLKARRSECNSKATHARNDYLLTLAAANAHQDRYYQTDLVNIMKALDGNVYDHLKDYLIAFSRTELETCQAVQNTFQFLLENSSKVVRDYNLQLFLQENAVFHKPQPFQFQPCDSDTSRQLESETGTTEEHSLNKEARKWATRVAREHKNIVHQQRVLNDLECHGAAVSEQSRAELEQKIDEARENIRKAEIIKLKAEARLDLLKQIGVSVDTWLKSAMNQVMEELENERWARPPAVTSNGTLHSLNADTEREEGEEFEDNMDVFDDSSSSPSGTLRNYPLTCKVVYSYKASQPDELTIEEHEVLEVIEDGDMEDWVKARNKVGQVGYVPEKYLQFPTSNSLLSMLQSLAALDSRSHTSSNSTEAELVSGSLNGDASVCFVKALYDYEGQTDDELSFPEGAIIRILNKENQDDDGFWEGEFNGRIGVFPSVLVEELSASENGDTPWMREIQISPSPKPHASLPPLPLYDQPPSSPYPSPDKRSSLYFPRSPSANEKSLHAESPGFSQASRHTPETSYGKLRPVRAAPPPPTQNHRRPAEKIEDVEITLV
B2: F-box only protein 3 (Homo sapiens), Q9UK99 (parent)
chain: MAAMETETAPLTLESLPTDPLLLILSFLDYRDLINCCYVSRRLSQLSSHDPLWRRHCKKYWLISEEEKTQKNQCWKSLFIDTYSDVGRYIDHYAAIKKAWDDLKKYLEPRCPRMVLSLKEGAREEDLDAVEAQIGCKLPDDYRCSYRIHNGQKLVVPGLLGSMALSNHYRSEDLLDVDTAAGGFQQRQGLKYCLPLTFCIHTGLSQYIAVEAAEGRNKNEVFYQCPDQMARNPAAIDMFIIGATFTDWFTSYVKNVVSGGFPIIRDQIFRYVHDPECVATTGDITVSVSTSFLPELSSVHPPHYFFTYRIRIEMSKDALPEKACQLDSRYWRITNAKGDVEEVQGPGVVGEFPIISPGRVYEYTSCTTFSTTSGYMEGYYTFHFLYFKDKIFNVAIPRFHMACPTFRVSIARLEMGPDEYEEMEEEEEEEEEEDEDDDSADMDESDEDDEEERRRRVFDVPIRRRRCSRLF
B3: Late cornified envelope protein 1B (Homo sapiens), Q5T7P3 (parent)
chain: MSCQQNQQQCQPPPKCIPKCPPKCLTPRCPPKCPPKCPPVSSCCSVSSGGCCGSSSGGSCGSSSGGCCSSGGGGCCLSHHRRRRSHCHRPQSSGCCSQPSGGSSCCGGGSGQHSGGCC
partner: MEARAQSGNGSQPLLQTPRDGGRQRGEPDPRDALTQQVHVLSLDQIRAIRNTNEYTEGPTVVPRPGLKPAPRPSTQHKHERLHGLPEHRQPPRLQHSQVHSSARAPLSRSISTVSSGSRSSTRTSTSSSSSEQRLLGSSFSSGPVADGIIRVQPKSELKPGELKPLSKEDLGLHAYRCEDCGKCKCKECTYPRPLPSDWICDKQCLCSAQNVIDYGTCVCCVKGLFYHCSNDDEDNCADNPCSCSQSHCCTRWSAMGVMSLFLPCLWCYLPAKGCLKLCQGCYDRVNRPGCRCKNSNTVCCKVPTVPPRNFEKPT
B4: E3 ubiquitin-protein ligase RNF185 (Homo sapiens), Q96GF1 (parent)
chain: MASKGPSASASPENSSAGGPSGSSNGAGESGGQDSTFECNICLDTAKDAVISLCGHLFCWPCLHQWLETRPNRQVCPVCKAGISRDKVIPLYGRGSTGQQDPREKTPPRPQGQRPEPENRGGFQGFGFGDGGFQMSFGIGAFPFGIFATAFNINDGRPPPAVPGTPQYVDEQFLSRLFLFVALVIMFWLLIA
B5: Guanine nucleotide exchange factor for Rab-3A (Homo sapiens), Q8TBN0 (parent)
chain: MWSGPPQPDQGLPPPLAAVPVPWKSTDPCQGHRESPGALVETSAGEEAQGQEGPAAAQLDVLRLRSSSMEIREKGSEFLKEELHRAQKELKLKDEECERLSKVREQLEQELEELTASLFEEAHKMVREANMKQAASEKQLKEARGKIDMLQAEVTALKTLVITSTPASPNRELHPQLLSPTKAGPRKGHSRHKSTSSTLCPAVCPAAGHTLTPDREGKEVDTILFAEFQAWRESPTLDKTCPFLERVYREDVGPCLDFTMQELSVLVRAAVEDNTLTIEPVASQTLPTVKVAEVDCSSTNTCALSGLTRTCRHRIRLGDSKSHYYISPSSRARITAVCNFFTYIRYIQQGLVRQDAEPMFWEIMRLRKEMSLAKLGFFPQEA
B6: Proton-coupled zinc antiporter SLC30A2 (Homo sapiens), Q9BRI3 (parent)
chain: MEAKEKQHLLDARPAIRSYTGSLWQEGAGWIPLPRPGLDLQAIELAAQSNHHCHAQKGPDSHCDPKKGKAQRQLYVASAICLLFMIGEVVGGYLAHSLAVMTDAAHLLTDFASMLISLFSLWMSSRPATKTMNFGWQRAEILGALVSVLSIWVVTGVLVYLAVERLISGDYEIDGGTMLITSGCAVAVNIIMGLTLHQSGHGHSHGTTNQQEENPSVRAAFIHVIGDFMQSMGVLVAAYILYFKPEYKYVDPICTFVFSILVLGTTLTILRDVILVLMEGTPKGVDFTAVRDLLLSVEGVEALHSLHIWALTVAQPVLSVHIAIAQNTDAQAVLKTASSRLQGKFHFHTVTIQIEDYSEDMKDCQACQGPSD
partner: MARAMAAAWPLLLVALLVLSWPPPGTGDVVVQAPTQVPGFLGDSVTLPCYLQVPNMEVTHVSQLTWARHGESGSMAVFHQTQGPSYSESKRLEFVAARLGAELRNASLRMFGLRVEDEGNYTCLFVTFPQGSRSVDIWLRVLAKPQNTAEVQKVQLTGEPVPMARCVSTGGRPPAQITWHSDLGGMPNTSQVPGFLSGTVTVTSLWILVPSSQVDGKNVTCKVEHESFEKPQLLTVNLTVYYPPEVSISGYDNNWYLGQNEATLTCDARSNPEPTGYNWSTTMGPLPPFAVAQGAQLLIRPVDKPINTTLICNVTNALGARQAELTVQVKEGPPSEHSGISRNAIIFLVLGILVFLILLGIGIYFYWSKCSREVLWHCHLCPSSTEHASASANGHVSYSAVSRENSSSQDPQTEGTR

Variants of: B1
Details: with fcsd2_human FCHSD2, O94868

| effect of a mutation on the interaction | Variant |
| --- | --- |
| with no effect | R340W |
| with no effect | R510H |

Variants of: B2
Details: with skp1_human SKP1, P63208
Chain of skp1_human SKP1, P63208 (P63208 whole entry): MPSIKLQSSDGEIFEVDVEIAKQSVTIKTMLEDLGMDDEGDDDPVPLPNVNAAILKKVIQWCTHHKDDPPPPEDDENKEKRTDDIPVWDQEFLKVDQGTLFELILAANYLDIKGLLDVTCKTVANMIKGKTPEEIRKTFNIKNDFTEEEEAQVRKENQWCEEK

| effect of a mutation on the interaction | Variant |
| --- | --- |
| with no effect | P10S |

Variants of: B3
Details: with spy2_human SPRY2, O43597

| effect of a mutation on the interaction | Variant |
| --- | --- |
| with no effect | G108E |
| with no effect | C51Y |
| with no effect | H113Q |

Variants of: B4
Details: with ub2e3_human UBE2E3, Q969T4
Chain of ub2e3_human UBE2E3, Q969T4 (Q969T4 whole entry): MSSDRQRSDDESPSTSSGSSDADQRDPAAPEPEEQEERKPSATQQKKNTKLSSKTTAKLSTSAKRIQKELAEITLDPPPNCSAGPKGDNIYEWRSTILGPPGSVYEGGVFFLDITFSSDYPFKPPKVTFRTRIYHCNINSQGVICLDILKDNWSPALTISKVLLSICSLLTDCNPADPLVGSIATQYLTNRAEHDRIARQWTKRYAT

| effect of a mutation on the interaction | Variant |
| --- | --- |
| with no effect | A17T |

Variants of: B5
Details: with rb11a_human RAB11A

| effect of a mutation on the interaction | Variant |
| --- | --- |
| with no effect | H323Y |
| with no effect | T26A |
| with no effect | S190P |

Variants of: B6
Details: with pvr_human PVR

| effect of a mutation on the interaction | Variant |
| --- | --- |
| with no effect | T181M |
